{"source": "patent US9980982B2", "about": "“HE4 based therapy for malignant disease” (Women & Infants Hospital of Rhode Island, priority 2011, dated 2018)", "molecules": {"B1": {"name": "recombinant HE4: exogenous recombinant human epididymal secretory protein E4 (protein)", "chain": "EKTGVCPELQADQNCTQECVSDSECADNLKCCSAGCATFCSLPNDKEGSCPQVNINFPQLGLCRDQCQVDSQCPGQMKCCRNGCGKVSCVTPNF"}}, "key": {"CaOV-3": {"test_system": "CaOV-3", "assay": "Cell viability, exogenous recombinant HE4, CaOV-3", "type": "cell-based, Human"}, "SKOV-3 cells": {"test_system": "SKOV-3 cells", "assay": "MTS cell viability assay, parental/wild-type SKOV-3 cells", "type": "cell-based, Human", "details": "for effect of recombinant HE4 on cisplatin efficacy in SKOV-3 cells: combination or pre-treatment with HE4 (4 ng/mL in FIG. 10B) plus cisplatin", "procedure": "Cell growth and viability of cell lines (complete medium, 24 h incubation) was determined by the CellTiter 96® AQueous One Solution Assay (Promega Corp, Madison, Wis.) following the manufacturer's recommendations with modifications (Lange T S et al., 2008 PLOS One, 3(5):e2303). Experiments are expressed as the mean of triplicate determinations (X±SD) of a representative experiment in OD (cell growth) or % of absorbance by drug-treated versus untreated cells [=100%] (cell viability). Cisplatin (CDDP), paclitaxel, doxorubicin and camptothecin (CPT) were purchased from (Sigma Aldrich, St. Louis, Mo.).\nTo analyze the potential biological relevance of elevated HE4 production for ovarian cancer cells the efficacy of commonly used anticancer drugs was examined in a viability assay (FIG. 5). SKOV-3 clones or parental cells were treated with cisplatin, paclitaxel, doxorubicin, or camptothecin for 24 h in various concentrations as indicated and the cytotoxicity evaluated."}}, "note": "“Also recorded” adds a separate entry of the source."}
{"molecule": "B1", "values": [{"measurement": "effect on viability of CaOV-3", "setting": "CaOV-3", "result": "suppressed the viability"}, {"measurement": "effect of recombinant HE4 on cisplatin efficacy in SKOV-3 cells", "setting": "SKOV-3 cells", "result": "enhanced the efficacy of cisplatin; also recorded: synergized or enhanced suppression of cell-viability"}, {"measurement": "effect of recombinant HE4 on cisplatin efficacy in SKOV-3 cells", "setting": "SKOV-3 cells; listed as HE4", "result": "enhanced the efficacy of cisplatin"}, {"measurement": "effect on viability of SKOV-3 cells", "setting": "SKOV-3 cells; exogenous recombinant HE4", "result": "suppressed the viability of SKOV-3 cells"}, {"measurement": "IC50", "setting": "SKOV-3 cells; proliferating ovarian cancer cells (SKOV-3), read-out: IC50, reduction of cell viability", "result": "1 to 8", "unit": "µM"}]}
